Laboratory results: PMC7641761

Experiments:
[1] = molecular target: Ku70/Ku80 heterodimer FL (baculovirus) (human) (UniProt P12956+P13010); assay: MST; details: 1 mM DTT, 24 C, 40 nM FAM-RNA, EMSA: 25 mM Hepes-KOH pH 7.5, 50 mM NaCl, 1 mM EDTA, 10% glycerol, 0.1 uM BSA …
[2] = molecular target: Ku5D T305D;S306D;T307D;S314D;T316D (human) (UniProt P12956+P13010); assay: MST; details: MST: 50 mM Tris pH 8.0, 50 mM NaCl, 1 mM DTT, 24 C, 40 nM FAM-RNA, EMSA: 25 mM Hepes-KOH pH 7.5, 50 mM NaCl, 1 mM EDTA, 10% glycerol, 0.1 uM BSA …
Sequence of Ku5D T305D;S306D;T307D;S314D;T316D (human) (P12956 whole entry T305D/S306D/T307D/S314D/T316D, chain 1 of 2): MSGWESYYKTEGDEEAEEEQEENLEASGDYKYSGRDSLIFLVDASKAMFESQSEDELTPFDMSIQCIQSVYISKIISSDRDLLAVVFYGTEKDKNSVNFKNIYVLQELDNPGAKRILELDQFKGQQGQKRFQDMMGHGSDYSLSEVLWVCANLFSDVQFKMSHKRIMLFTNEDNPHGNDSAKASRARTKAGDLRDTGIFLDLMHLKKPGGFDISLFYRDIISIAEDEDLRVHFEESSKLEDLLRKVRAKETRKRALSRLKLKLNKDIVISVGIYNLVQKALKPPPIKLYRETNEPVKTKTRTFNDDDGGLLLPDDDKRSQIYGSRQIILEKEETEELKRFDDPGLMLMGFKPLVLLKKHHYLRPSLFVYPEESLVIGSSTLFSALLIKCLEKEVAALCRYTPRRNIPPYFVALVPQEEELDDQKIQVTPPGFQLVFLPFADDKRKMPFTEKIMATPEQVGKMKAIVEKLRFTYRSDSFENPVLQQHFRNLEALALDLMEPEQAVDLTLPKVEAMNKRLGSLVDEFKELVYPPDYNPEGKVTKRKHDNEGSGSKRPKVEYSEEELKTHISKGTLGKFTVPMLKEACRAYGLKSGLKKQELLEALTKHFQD
Sequence of Ku5D T305D;S306D;T307D;S314D;T316D (human) (P13010 1-718, chain 2 of 2): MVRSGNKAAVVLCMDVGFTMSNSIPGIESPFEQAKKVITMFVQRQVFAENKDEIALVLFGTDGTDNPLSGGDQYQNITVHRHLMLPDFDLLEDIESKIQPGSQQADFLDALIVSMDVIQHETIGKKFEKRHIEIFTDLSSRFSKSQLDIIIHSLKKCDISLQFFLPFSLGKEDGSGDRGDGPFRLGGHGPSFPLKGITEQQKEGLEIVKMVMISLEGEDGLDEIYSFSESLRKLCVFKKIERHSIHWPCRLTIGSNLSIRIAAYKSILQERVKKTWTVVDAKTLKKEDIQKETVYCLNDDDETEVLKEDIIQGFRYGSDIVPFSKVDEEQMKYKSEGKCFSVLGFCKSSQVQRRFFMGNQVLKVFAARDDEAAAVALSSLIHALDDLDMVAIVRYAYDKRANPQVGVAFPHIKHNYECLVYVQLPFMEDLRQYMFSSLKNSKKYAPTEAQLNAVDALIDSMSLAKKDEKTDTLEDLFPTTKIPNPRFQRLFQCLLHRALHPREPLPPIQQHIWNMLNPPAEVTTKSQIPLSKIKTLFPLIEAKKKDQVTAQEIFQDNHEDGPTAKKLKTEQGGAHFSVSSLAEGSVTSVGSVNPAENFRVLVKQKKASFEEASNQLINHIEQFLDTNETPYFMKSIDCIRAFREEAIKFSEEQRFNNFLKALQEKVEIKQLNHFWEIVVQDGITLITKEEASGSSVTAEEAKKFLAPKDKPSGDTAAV

[3] = MST: 50 mM Tris pH 8.0, 50 mM NaCl

Sequence of Ku70/Ku80 heterodimer FL (baculovirus) (human) (P12956 whole entry, chain 1 of 2): as the sequence (P12956 whole entry T305D/S306D/T307D/S314D/T316D, chain 1 of 2) above, with D305T, D306S, D307T, D314S, D316T counted along it
Sequence of Ku70/Ku80 heterodimer FL (baculovirus) (human) (P13010 1-718, chain 2 of 2): as the sequence (P13010 1-718, chain 2 of 2) above

Substance	Kd [1, 3]	binding signal (fold better than WT) [2]	Kd ([1]; Hill 1.0, MST: 50 mM Tris pH 8.0, 50 mM NaCl)
polyU	1400 nM		
polyC	1290 nM		
polyA	4800 nM		
LINP1 SL2 + SL3	700 nM		
FL LINP1		2	740 nM
